# Laboratory results as given in the nanobody polyreactivity screen of Harvey et al. (2022).
# Assay: yeast display, Sf9 membrane polyspecificity reagent, FACS + sequencing; frameworks hold sequencing errors
# In short: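 Sorting gates, low and high (top ~1%), were placed on anti-HA fluorescence to track expression and on streptavidin fluorescence to track reagent binding. A clone's polyreactivity label is taken from the gate it came out of. The reagent was 10% biotinylated, detergent-solubilized Sf9 membrane, applied for 1 hour at 4 °C to galactose-induced yeast display cells.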
row,Sequence,polyreactivity (PSR sort gate)
1,QVQLVESGGGLVQAGGSLRLICAASGSIFDPYAMGWYRQAPGKERELVAAITYSAARTYYADSVKGRFTISRDNAKNTVYLQMNSLKPEDTAVYYFNRVVRREAERYDYWGQGTQVTVSS,high polyreactivity
2,QVQLVESGGGLVQAGGSLRLICAASGSIFEYYAIRLYRQAPGTERELVADITYDGGNTYYADSLKGRFTISRDNAKNTVYLQMNSLKPEDTAVYYCATEYRYWQSDYSTYFPYDYWGQGTQVTVSS,low polyreactivity
3,QVQLVESGGGLVQAGGSLRLICAASGSIFFYNAMGWYRQAPGKERELVAAITTRGGSTYYADSVKGRFTISRDNAKNTVYLQMNSLKPEDTAVYYCARSSRGKLDYWGQGTQVTVSS,low polyreactivity
4,QVQLVESGGGLVQAGGSLRLICAASGSIFHRYTMGWYRQAPGKERELVAAINYSGSTTHYADSVKGRFTISRDNAKNTVYLQMNSLKPEDTAVYYCAAGSTRWYPTRVRYDYWGQGTQVTVSS,low polyreactivity
5,QVQLVESGGGLVQAGGSLRLICAASGSIFITYAMGWSRPAPGKERELVAAIRDSGDRTYYADSVKGRFTISRDNAKNTVYLQMNSLKPEDTAVYYCNARWQERLKYDYWGQGTQVTVSS,low polyreactivity
6,QVQLVESGGGLVQAGGSLRLICAASGSIFPHYAMGWYRPAPGKERELVAAISRGGSTNYADSVKGRFTISRDNAKNTVYLQMNSLKPEDTAVYYCNALRYYSRFMYAVAYRYDYWGQGTQVTVSS,high polyreactivity
7,QVQLVESGGGLVQAGGSLRLICAASGSIFTKYAMVWYRQAPGKERELVAAITWSGGRTYYADSVKGRYTISRDNAKNTVYLQMNSLKPEDTAVYYCAAELFRQGYYYWGQGTQVTVSS,high polyreactivity
8,QVQLVESGGGLVQAGGSLRLICAASGSIFVGNAMGWYRQAPGKERELVAAITSSGGRTYYADSVKGRFTISRDNAKNTVYLQMNSLKPEDTAVYYCNTSRTRRFSLWAYDYWGQGTQVTVSS,high polyreactivity
9,QVQLVESGGGLVQAGGSLRLICAASGSIFVIYAMGWYRQAPGKERELVAAITSGGNTTYADSVKGRFTISRDNAKNTVSLQMNSLKPEDTAVYYCSADYPWEYDYWGQGTQVTVSS,low polyreactivity
10,QVQLVESGGGLVQAGGSLRLICAASGSIFYFYAMGWYREAPGKERELVAAIRYNGGSTYYADSVKGRFTISRDNAKNTVYLQMNSLKPEDTAVYYCAAGGFHYVYYRGMYYWGQGTQVTVSS,high polyreactivity
11,QVQLVESGGGLVQAGGSLRLICAASGSIFYGYAMGWYRPAPGKERELVAAISYSGDRTYYADSVKGRFTISRDNAKNSVYLQMNSLKPEDTAVYYCAAQRRYGDDYWGQGTQVTVSS,high polyreactivity
12,QVQLVESGGGLVQAGGSLRLICAASGSIFYRYTMGWYRQAPGKERELVAAISSRGGSTYYADSVKGRFTISRDNAKNTVYLQMNSLKPEYTAVYYCAARFSYWAPSKGYGYWGQGTQVTVSS,high polyreactivity
13,QVQLVESGGGLVQAGGSLRLICAASGSKFSSYCMGWYRQATGQEMELVAAISKRGGSTYYADTVKGRFTISRDNAKNTVYLQMNSLKPEDTAVYYCAAAVSIQGYSTLFDYWGQGTQVTVSS,high polyreactivity
14,QVQLVESGGGLVQAGGSLRLICAASGSNFGSNAMGWYRQAPGKETEFVAVITWRVGVTYYADSVKGRFTISRDNAKNTVYLQMNSLKPEDTAVYYCNVDWKVYGAPDYRIAWKYDYWGQGTQVTVSS,low polyreactivity
15,QVQLVESGGGLVQAGGSLRLICAASGSTFDGYAMGWYRQAPGKERELVAAISKNGVRTYYADSVKGRFTISRDNAKNTVYLLMNSLKPEDTAVYYCAKDIIKYDYDYWGQGTQVTVSS,low polyreactivity
16,QVQLVESGGGLVQAGGSLRLICAASGSTFEYYAMGWYRPAPGKERELVAAINGIGGSTTYADSVKGRFTISRDNAKNTVYLQMNSLKPEDSAVYYCNADVARSKSQASAYDYWGQGTQVTVSS,low polyreactivity
